Values of other authors, collected in US20110015134A1, “Method of treatment for early stage cancer” (priority 2007, published 2011).

Tests used:
[1] = system: wound healing associated tumor growth; conditions: reported in the literature
[2] = in vivo
[3] = at any level, at any concentration
[4] = in vivo; remark: listed apart in the source

## O=S1(=O)CCN(CN2CCS(=O)(=O)NC2)CN1 [Taurolidine]
[1]
  prevention of wound healing associated / surgery induced tumor growth: can prevent surgery induced tumor growth

## COc1ccc2c(c1)c(CC(=O)O)c(C)n2C(=O)c1ccc(Cl)cc1 [Indomethacin]
[1]
  prevention of wound healing associated / surgery induced tumor growth: effective in preventing wound healing associated tumor growth

## Avastin: angiogenesis inhibitor that inhibits VEGF
[2]
  dose limiting toxicity: some dose limiting toxicity mainly hypertension

## Endostatin
[3]
  toxicity: never been shown to exhibit toxicity at any level at any concentration
[4]
  half-life: half-life is short
